The supplement of paper PMC10201428
± gives the standard deviation of the averaged measurements.

How the values were obtained:
[1] = system: VchCAST RNA-guided transposition machinery (E. coli BL21(DE3) host, lacZ target); assay: relative integration efficiency (T-RL orientation) vs wild-type transposon end (log2 (normalized fold change)); transposon end mutated: right end (5 bp flank + 75 bp right end); higher = more efficient transposition
In short: (§1)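 Pools of 1549 left-end or 1849 right-end barcoded transposon variants were cloned into a pUC57 mini-transposon donor and co-transformed into E. coli BL21(DE3) with a T7-driven effector plasmid carrying a CRISPR array, tniQ-cas8-cas7-cas6 and tnsA-tnsB-tnsC. Plating used 0.1 mM IPTG at 37°C for 18 h, and input plasmids and genomic integration junctions were PCR-amplified for Illumina sequencing, with two biological output replicates and four reference barcodes. Relative integration efficiency is the log-transformed fold change of output over input barcode abundance, normalised to the reference barcodes.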

[2] = system: VchCAST RNA-guided transposition machinery (E. coli BL21(DE3) host, lacZ target); assay: relative integration efficiency (T-LR orientation) vs wild-type transposon end (log2 (normalized fold change)); transposon end mutated: right end (5 bp flank + 75 bp right end); higher = more efficient transposition
In short: as §1

| Sequence | relative integration efficiency (log2) [1] | relative integration efficiency (log2) [2] |
| --- | --- | --- |
| ACATTTGTTGATACAACCATAAAAGGATCATTACACCCATCAATTGATAATTATCACACCCAATTTAACTATAACGCTCTGATCATAGTCAGACCAACATTGCTACGACCCGTATTCGCACCGACAC | -3.44 ± 0.37 | -0.241 ± 0.022 |
| ACATTTGTTCATACAACCATAAAACGATAATTACACCCATAAATGGATCATTATCACACCCAATTTAACTATAACGCTCTGATCATAGTCAGACCAACATTGCTACGACCCGTATTCGCACCGACAC | -2.16 ± 0.3 | -0.511 ± 0.011 |
| CAAAATGTAAAAAAAACCATACGTTGATTTTACGAAACCATACGCTGAAATAATCACAACCATACCTTGAAATTGCTTATAAAGTGTACAACACTTGAGAAAGTTTACTACAGGTATGCACCGACAC | < -10 | < -10 |
| ACATTTGTTGATACCACCATAAAATGATAATTCCACCCATACATTGATAATTATCACACCCAATTTAACTATAACGCTCTGATCATAGTCAGACCAACATTGCTACGACCCGTATTCGCACCGACAC | -2.81 ± 0.42 | 0.789 ± 0.33 |
| ACATTTGTTGATACAACCATAAAATGATAATTAATAATTATTTATAATCAGCCACCCATAAATTGATAATTATCAACAAACGCCCGGTCGCGGTACTCTGATCATAGTCAGACCAACATTGCTACGA | -1.83 ± 0.4 | 1.16 ± 0.037 |
| ACATTTGTTGATACAACCATACCATGATAATTACACCCATACCTTGATAATTATCACACCCATACCTTGATATTGCCTCTGATCATAGTCAGACCAACATTGCTACGACCCGTATTCGCACCGACAC | -3.2 ± 0.16 | -1.75 ± 0.22 |
| ACATTTGTTGATACAACCATAAAATGATAATTACACCGTTAAATTGATAATTATCACACCCATAAATTGATATTGCCTCTGATCATAGTCAGACCAACATTGCTACGACCCGTATTCGCACCGACAC | -0.609 ± 0.084 | -1.18 ± 0.3 |
| ACATTTGTTGATACAACCATAAAATGATAATTACACCCATAAATTGATAATAATGACACCGAATTTAACTATAACGCTCTGATCATAGTCAGACCAACATTGCTACGACCCGTATTCGCACCGACAC | 1.54 ± 0.64 | 5.35 ± 0.24 |
| ACATTTCTTCATACAACCATAAAATGATAATTACACCCATAAATGGATAATTATCACACCCAATTTAACTATAACGCTCTGATCATAGTCAGACCAACATTGCTACGACCCGTATTCGCACCGACAC | -4.17 ± 0.17 | -2.86 ± 0.049 |
| ACATTTGTTGATACAACCATAAAATGATAATTACACCCATAAATTGATAATTATCACACCCATAAATTGATATTGCCTCTGATCATAGTCAGACCAACAACCATAAAATGATAATTAGCACCGACAC | 0.0312 ± 0.094 | -0.0679 ± 0.32 |
| ACATTTGTCGATACAACCCTAAAATGATAATTACACCCATAAATGGATCATTATCACCCCCAATTTAACTATAACGCTCTGATCATAGTCAGACCAACATTGCTACGACCCGTATTCGCACCGACAC | -4.03 ± 0.42 | -1.4 ± 0.051 |
| ACATTTGTTGATACAACCATAAGTTGATATTTTCACCCATAAATTGATAATTATCACACCCATAAATTGATATTGCCTCTGATCATAGTCAGACCAACATTGCTACGACCCGTATTCGCACCGACAC | 0.0993 ± 0.059 | -0.177 ± 0.84 |
| ACATTTGTTGATACAACCATAAAATGATAATTACACAACGCCCGGTCGCCGGCGACACAAACGCCCGGTCGCGGTAAGAGGATCATAGTCAGACCAACATTGCTACGACCCGTATTCGCACCGACAC | -2.42 ± 0.23 | 0.604 ± 0.2 |
| ACATTTGTCGATACAACCCTAAAATGATAATTACACCCATAAATTCATAATTATCACCCCCAATTTAACTATAACGCTCTGATCATAGTCAGACCAACATTGCTACGACCCGTATTCGCACCGACAC | -4.67 ± 0.055 | -1.84 ± 0.085 |
| ACATTTGTTGATACAACCATAAAATGATAATTACCCCCATAAATTGATAATTGTGACACCGAATTTAACTATAACGCTCTGATCATAGTCAGACCAACATTGCTACGACCCGTATTCGCACCGACAC | -1.79 ± 0.38 | 1.94 ± 0.097 |
| ACATTTCTTCATACAACCATAAAATGATAATTACACCCATAAATTCATAATTATCACACCCAATTTAACTATAACGCTCTGATCATAGTCAGACCAACATTGCTACGACCCGTATTCGCACCGACAC | -5.24 ± 0.61 | -3.54 ± 2.7 |
| ACATTTGTTGATACACCCATAAATTGATAATTACAACCATATATTGATATCTCTCACAACCATAAAGTGATATTTACTCTGATCATAGTCAGACCAACATTGCTACGACCCGTATTCGCACCGACAC | -0.664 ± 0.34 | 0.11 ± 0.14 |
| ACATTAGTTGATACAACCATAAAATGATAATTACACCCATAAATGGATCATTATCACACCCAATTTAACTATAACGCTCTGATCATAGTCAGACCAACATTGCTACGACCCGTATTCGCACCGACAC | -6.02 ± 0.2 | -4.72 ± 0.67 |

| Sequence | relative integration efficiency (log2) [1] | relative integration efficiency (log2) [2] |
| --- | --- | --- |
| ACATTTGTTGATACAACCATAAAATGATCCGGACACCCATAAATTGATAATTATCACACCCATAAATTGATATTGCCTCTGATCATAGTCAGACCAACATTGCTACGACCCGTATTCGCACCGACAC | -1.23 ± 0.15 | -0.898 ± 0.013 |
| ACATTTGTTGATACACCCATAAATTGATAATTACAACCATAAAGTGATATTTATCACAACCATAAAATGATAATTACTCTGATCATAGTCAGACCAACATTGCTACGACCCGTATTCGCACCGACAC | -0.58 ± 0.22 | -0.432 ± 0.17 |
| ACATTTGTTGATACAACCATAAAATGATCATTACCCCCATCAATTGATAATTATCACACCCCATTTAACTATAACGCTCTGATCATAGTCAGACCAACATTGCTACGACCCGTATTCGCACCGACAC | -3.74 ± 0.21 | -0.533 ± 0.18 |
| ACATTTGTTCATACAACCATAAAATGATAATTACACCCATAAATTCATCATTATCACACCCAATTTAACTATAACGCTCTGATCATAGTCAGACCAACATTGCTACGACCCGTATTCGCACCGACAC | -2.35 ± 0.22 | -0.334 ± 0.16 |
| ACATTTGTTGATACAACCATAAAATGATAATTACACCCATAAATTGATAATTATCACACCCATAAATTGATATTGCCTCTGATCAAATTGTGAGCGGATAACAATTTAGTCAGACCAGCACCGACAC | -0.232 ± 0.12 | 0.00708 ± 0.62 |
| ACATTTGTTGATACAACCCTAAAATGATAATTACACCCATAAATGGATCATTATCACCCCCAATTTAACTATAACGCTCTGATCATAGTCAGACCAACATTGCTACGACCCGTATTCGCACCGACAC | -4.22 ± 0.58 | -1.44 ± 0.036 |
| ACATTTGTTGATACAACCATAAAATGATAATTACACCCATAAATTGATAATTATCACACCACGCCCGGTCGCGGTAAGAGGATCATAGTCAGACCAACATTGCTACGACCCGTATTCGCACCGACAC | -0.546 ± 0.089 | 2.46 ± 0.034 |
| ACATTTGTTGATACAACCATAAAATGATAATTAACAAACGCCCGGTCGCCGGCGACACAAACGCCCGGTCGCGGTAAGAGGATCATAGTCAGACCAACATTGCTACGACCCGTATTCGCACCGACAC | -2.3 ± 0.29 | 0.957 ± 0.25 |
| ACATTTGTTGATACAACCATAAAATGATAATTACACCCATAAATTGATAATTATCACACCCATAAATTGATATTGCCTCTGATCCAACCATAAAATGATAATTAATAGTCAGACCAAGCACCGACAC | 0.156 ± 0.25 | 0.046 ± 0.066 |
| ACATTTGTTGATACAACCATTAAATGATAATTACACCCATAAATTGATAATAATGACACCGAATTTAACTATAACGCTCTGATCATAGTCAGACCAACATTGCTACGACCCGTATTCGCACCGACAC | -0.985 ± 0.22 | 1.98 ± 0.0099 |
| ACATTTGTAGAAAAAACCATACGTTGATTTTACGAAACCATACGCTGAAATAATCACACCCATAAATTGATATTGCCTCTGATCATAGTCAGACCAACATTGCTACGACCCGTATTCGCACCGACAC | -6.62 ± 0.1 | -5.68 ± 1.4 |
| ACATTTGTTGATACACCCATAAATTGATATTGCCAACCATAAGTTGATATTTTTCACAACCATAAAGTGATATTTACTCTGATCATAGTCAGACCAACATTGCTACGACCCGTATTCGCACCGACAC | -0.583 ± 0.25 | -0.457 ± 0.31 |
| ACATTTGTTGATACAACCATAAAATGATAATTAATAATTATTTATAATCAGCAACTTAACACCCATAAATTGATAATTATCAACAAACGCCCGGTCGCGGTACTCTGATCATAGTCAGACCAACATT | -3.404 ± 0.015 | -0.0617 ± 0.066 |
| ACATTTGTAAAAAAAACCATACGTTGATTTTACGAAACCATACGCTGAAATAATCACAACCATAAATTGAAATTGCCTCTGATCATAGTCAGACCAACATTGCTACGACCCGTATTCGCACCGACAC | -6.99 ± 0.21 | -6.41 ± 1.9 |
| ACATTTGTTGATCAAACCATAAAATGATAATTACACCCATAAATTGATAATTATCACACCCATAAATTGATATTGCCTCTGATCATAGTCAGACCAACATTGCTACGACCCGTATTCGCACCGACAC | -0.137 ± 0.021 | -0.874 ± 0.45 |
| ACATTTGTTGATACAACCATAAAATGATAATTAATAATTATTTATAATCAGCAACTTCACCCATAAATTGATAATTATCACACCCATAAATTGATATTGCCTCTGATCATAGTCAGACCAACATTGC | -3.33 ± 0.32 | -1.32 ± 0.21 |
| ACATTTGTTGATACCACCATAAAATGGTAATTACACCCATACATTGATAATTATCACACCCAATTTAACTATAACGCTCTGATCATAGTCAGACCAACATTGCTACGACCCGTATTCGCACCGACAC | -2.87 ± 0.24 | 0.455 ± 0.2 |
